Assay results: US20170101470A1 (PROTHENA BIOSCIENCES, published 2017)

Tests used:
[1] = target: T1, human MCAM S206A mutant clone on BHK-S cells (human) (UniProt P43121); assay: shotgun mutagenesis, immunodetection on BHK-S cells, 0.25 ug/mL, background-subtracted and normalised to WT, triplicate
T1 sequence: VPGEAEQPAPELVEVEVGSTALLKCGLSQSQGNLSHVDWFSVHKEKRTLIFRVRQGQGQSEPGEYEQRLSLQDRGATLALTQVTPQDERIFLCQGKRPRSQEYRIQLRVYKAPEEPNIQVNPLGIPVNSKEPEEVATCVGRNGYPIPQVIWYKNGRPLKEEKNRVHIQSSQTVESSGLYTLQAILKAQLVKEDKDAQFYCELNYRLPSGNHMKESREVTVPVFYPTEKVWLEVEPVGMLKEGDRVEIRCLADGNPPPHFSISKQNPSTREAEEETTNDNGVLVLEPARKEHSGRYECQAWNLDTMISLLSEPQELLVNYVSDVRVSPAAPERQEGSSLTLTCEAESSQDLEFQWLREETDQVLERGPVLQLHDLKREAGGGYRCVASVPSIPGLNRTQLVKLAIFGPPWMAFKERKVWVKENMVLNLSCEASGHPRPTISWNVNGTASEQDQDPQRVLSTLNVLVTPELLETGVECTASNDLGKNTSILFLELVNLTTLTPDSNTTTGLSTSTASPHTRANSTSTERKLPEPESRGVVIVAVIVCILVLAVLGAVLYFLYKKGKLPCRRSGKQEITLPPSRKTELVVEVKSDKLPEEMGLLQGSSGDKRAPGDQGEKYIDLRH

[2] = target: T2, human MCAM S238A mutant clone on BHK-S cells (human) (UniProt P43121); assay: as above
T2 sequence: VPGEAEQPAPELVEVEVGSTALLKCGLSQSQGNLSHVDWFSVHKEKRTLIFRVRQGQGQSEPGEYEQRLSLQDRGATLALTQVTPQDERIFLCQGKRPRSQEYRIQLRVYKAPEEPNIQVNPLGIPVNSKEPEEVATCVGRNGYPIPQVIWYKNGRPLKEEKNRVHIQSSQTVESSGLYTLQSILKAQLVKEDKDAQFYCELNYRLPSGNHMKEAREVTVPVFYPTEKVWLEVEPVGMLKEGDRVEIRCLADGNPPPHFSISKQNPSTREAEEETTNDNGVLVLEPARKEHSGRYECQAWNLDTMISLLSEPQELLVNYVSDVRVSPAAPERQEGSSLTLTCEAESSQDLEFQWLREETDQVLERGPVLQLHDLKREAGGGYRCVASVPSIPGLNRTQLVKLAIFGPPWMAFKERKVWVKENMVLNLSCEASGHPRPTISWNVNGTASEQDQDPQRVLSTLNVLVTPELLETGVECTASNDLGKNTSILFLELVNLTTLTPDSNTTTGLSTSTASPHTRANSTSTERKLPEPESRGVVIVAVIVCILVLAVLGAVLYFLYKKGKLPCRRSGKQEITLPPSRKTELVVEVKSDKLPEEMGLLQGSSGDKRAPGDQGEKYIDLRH

[3] = target: T3, human MCAM Y167A mutant clone on BHK-S cells (human) (UniProt P43121); assay: as above
T3 sequence: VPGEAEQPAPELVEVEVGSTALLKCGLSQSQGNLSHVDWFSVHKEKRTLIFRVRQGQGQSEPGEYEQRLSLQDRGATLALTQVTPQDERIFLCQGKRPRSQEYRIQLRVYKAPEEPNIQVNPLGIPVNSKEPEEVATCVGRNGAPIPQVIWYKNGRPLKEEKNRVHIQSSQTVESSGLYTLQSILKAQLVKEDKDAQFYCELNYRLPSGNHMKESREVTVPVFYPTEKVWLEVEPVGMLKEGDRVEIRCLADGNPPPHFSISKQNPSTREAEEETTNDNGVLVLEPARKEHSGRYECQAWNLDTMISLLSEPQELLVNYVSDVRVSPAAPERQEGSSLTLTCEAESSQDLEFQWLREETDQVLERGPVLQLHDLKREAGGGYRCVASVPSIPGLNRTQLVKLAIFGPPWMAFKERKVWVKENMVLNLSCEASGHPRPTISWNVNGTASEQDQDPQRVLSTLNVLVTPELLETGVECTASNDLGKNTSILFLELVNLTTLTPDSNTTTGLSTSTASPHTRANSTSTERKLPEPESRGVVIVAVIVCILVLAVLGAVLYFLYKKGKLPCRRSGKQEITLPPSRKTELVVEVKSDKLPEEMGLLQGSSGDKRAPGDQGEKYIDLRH

[4] = target: T4, human MCAM domain 1 hFc construct (human, UniProt P43121 19-129); assay: ForteBio Octet Red, MCAMhFc domains on anti-human IgG Fc sensors
T4 construct: One of the 'various MCAMhFc domains' loaded on the ForteBio sensors; also called MCAMhFc domain 1
T4 sequence: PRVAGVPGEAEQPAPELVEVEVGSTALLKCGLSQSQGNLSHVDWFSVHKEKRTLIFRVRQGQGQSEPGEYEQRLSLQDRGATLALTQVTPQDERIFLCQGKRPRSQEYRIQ
Source text: The following protocol was used: ForteBio anti-human IgG Fc biosensors were used to immobilize various MCAMhFc domains including full length MCAMhFc protein on to biosensor surface. […] After loading these samples into a black 96 well plate, the Octet Red was programmed as follows: 60 seconds for baseline #1; 180 seconds for loading various domains; 60 seconds for baseline #2; 180 seconds for association of antibody to domain; and 240 seconds for dissociation of antibody from domain.
Reagents and Supplies Used: [0358] 1. MCAMhFc final concentration @ 5 ug/ml [0359] […] 3. ForteBio anti-human IgG Fc Capture (AHC) biosensors for kinetics experiments, cat#18-5060 [0361] 4. Block 96 well plate from Greiner Bio-one, cat#655209 [0362] 5. ForteBio Octet Red machine [0363] 6. Fresh tissue culture medium, DMEM with 20% FCS, was used as buffer for dilution

B1: rat anti-human MCAM monoclonal antibody clone 2120.4.19 (antibody, V domains shown)
VH: QVQLKESGPGLVQPSQTLSLTCTVSGFSLTSNGVSWVRQPPGKGLEWIAAISSGGTTYYNSAFKSRLSISRNTSKSQVLLKMNSLQTEDTAMYFCARRYGYGWYFDFWGPGTMVTVSS
VL: DIRMTQSPSLLSASVGDRVTLNCKASQNIYNSLAWYQQKLGEGPKVLIPNANSLQTGIPSRFSGSGSGTDFTLTISSLQPEDFATYFCQQFYSGYTFGAGTKLELK
notes: also called m2120
mean reactivity (% of wild type MCAM) [1]: 17.9 % WT
mean reactivity (% of wild type MCAM) [2]: 28.9 % WT
mean reactivity (% of wild type MCAM) [3]: 14.3 % WT
binding result [4]: no binding (tested: 5 ug/ml)
